This is an account of results in the nanobody polyreactivity screen of Harvey et al. (2022).

A short description of this data set: yeast display, Sf9 membrane polyspecificity reagent, FACS + sequencing; frameworks hold sequencing errors. In short, it runs like this:
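Using colony PCR, genes from sorted yeast display clones were amplified, then sequenced on MiSeq at 2 × 250 and filtered by CDR length. The clones had been stained with 10% biotinylated, detergent-solubilized Sf9 membrane reagent for 1 hour at 4 °C and sorted by FACS into low and high (top ~1%) gates on anti-HA and streptavidin fluorescence. Polyreactivity labels come from the gate of origin.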
On to “QVKLVESGGGLVQAGGSLRLSCAASGSIFWGYDMGWYRQAPGKERELVARISYSGGSTSYADSVKGRFTISRDNAKNTVYLQMNSLKPEDTAVFYCAADEGGFWWTYPYDSLGQGTQVTVSS”, for which the “polyreactivity (PSR sort gate)” value is “low polyreactivity”.

Turning to “QVQLVESGGGLVQAGGSLRLSCAASGSIFGPYAMGWYRQAPGKERELVAAITSGGSTYYADSVKGRFTISRDNAKNTVYLQMNSLKPEDTAVYYCNAESYFWDFYDYDHWGQGTQVTLSS”, the “polyreactivity (PSR sort gate)” value is reported as “low polyreactivity”.

As to “QVQLVESGGGLVQEGGSLRLSCAASGITFPDYAMGWYRQAPGKERELVAAISRGVNTYYADSVKGRFTISRDNAKNTVYLQMNSLKPEDTAVYYCNRRGSSGYDYWGLGTQVTVSS”, the “polyreactivity (PSR sort gate)” value is “low polyreactivity”.

“QVQLVESGGGLVQAGGSLRLSCAASGSIFNYYVMGWYRQAPGKERELVAGIRWNGGSTYYADSVKGRFTISRDNAKNTVYLQMNSLKPEDTAVYYCAAQAWWGYYSRGPMDYWGQGTQVTVSS”: the “polyreactivity (PSR sort gate)” value is listed as “low polyreactivity”.

In the case of “QVQLVESGGGLVQAGGSLRLSCAASGSTFQTYAMGWYRQAPGKERELVAAITSGGSTNYADSVKGRFTISRDNAKNTVYLQMNSLKPEETAVYYCAVRQIYQTSDHRLQYDYWGQGTQVSVSS”, the “polyreactivity (PSR sort gate)” value is reported as “low polyreactivity”.

Take “QVQLVESGGGLVQAGGSLRLSCAASGRTFQYYAMGWYRQAPGKERELVAAITSGGSTYYADSVKGRFTISRDNAKNTVYLQMNSLKPEDTAVYYCAATFYYSGHDDYWGQGTQVTVSS”: the “polyreactivity (PSR sort gate)” value is “low polyreactivity”.

As for “QVQLVESGAGLVQAGGSLRLSCAATGLTFDYNAMGWYRKAPGKERELVAAITWSGGSTYYADSVKGRFTISRDNAKNTVYLQMNSLKTEDTAVYYCATESYGLDYYDEYNYWGQGTQVTVSS”, the “polyreactivity (PSR sort gate)” value is listed as “low polyreactivity”.

With “QVQLVESGGGLVQAGGSLRLSCAASGSTFGDNTMGWYRQAPGKERELVAAISRRGGSTYYADSVKGRFTISRDNAKNTVYLQMNSLKPEDTAVYYCADEWQQLGGPVYYWGQGTQVTVSS”, the “polyreactivity (PSR sort gate)” value is “high polyreactivity”.

With “QVQLVESGGGLVQAGGSLRLSCAASGRIFWGYAMGWYRQAPGKERELVAAISWSGGSTYYADSVKGRFTISRDNAKNTVYLQMNSLKPEDTAVYYCNAYSDGDEDYWGQGTQVTVSS”, the “polyreactivity (PSR sort gate)” value is on record as “low polyreactivity”.

With “QVHLVESGGGLVQAGGSLRLSCAASGSSFRYYAMGWYRQAPGKERELVAAISGSGGRTYYADSVKGRFTISRDNEKNNVYLQMNSLKPEDTAVYYCAAQSGYYDSAYGYWGQGTKVTVSS”, the “polyreactivity (PSR sort gate)” value was “high polyreactivity”.

Turning to “QVQLVESGGGLVQAGGSLRLSCAASGRIFKYYAMGWYRQAPGTERELVAAITSGGSTYYADSVKGRFTISRDNAKNTVYLQMNSLKPEDTAVYYCNADGYLSYAFDYWGQGTQVTVSS”, the “polyreactivity (PSR sort gate)” value is “low polyreactivity”.

As to “QVQLVESGGGLVQAGGSLRLSCAASGRIFKKNAMGWYRQAPGKERELVAAIRGSGDSTFYADSVKGRFTISRDNAKNTVYLQMNSLKPEDTAVYYCAAGDVPRRIYLVYVGYLLDYWGQGTQVTVSS”, the “polyreactivity (PSR sort gate)” value was “low polyreactivity”.

In the case of “QVQLVESGGGLVQAGGSLRLSCAASGFIFRVYAMGWYRQAPGKERELVAAISDSGGSTTYADSVKGRFTISRDNAKNTVYLQMNSLKPEDTAVYYCAADYDFFSLYLYDYWGQGTQVTVSS”, the “polyreactivity (PSR sort gate)” value was “low polyreactivity”.

For “QVQLVESGGGLVQAGGSLRLSSAASGRTFSRYAMGWYRQAPGKERELVATISWSGGSTYYADSVKGRFTISRDNAKNTVYLQMNSLNPEDTAVYYCAAKGVYQYRFTKYGYWGQGTQVTVSS”, the “polyreactivity (PSR sort gate)” value is recorded as “high polyreactivity”.

For “QVHLVESGGGLVQAGGSLRLSCAASGFTFSYYAMGWYRQPPGKERELVAAITTSGGRTYYADSVKGRFPISRDNAKNTVYLQMNSLKPEDTAVYYCAATYPRYYSGEFDYWGQGTQVTVSS”, the “polyreactivity (PSR sort gate)” value is reported as “high polyreactivity”.

For “QVQLVESGGGLVQAGGSLRLSCAASGSIFYGNAMGWYRQAPGKEREFVAAINWSGARTYYADSVKGRFTISRDNAKNTVSLQMNSLKPEDTAVYYCAAGRPFSFRYEFDYWGQGTQVTVSS”, the “polyreactivity (PSR sort gate)” value is “high polyreactivity”.

In the case of “QVQLVESGGGLVQAGGSLRLSCAASGRIFSYNAMGWYRQAPGQERELVASISGRGVITYYADSVKGRFTISRDNAKNTVYLQMNSLKPEDTAVYYCNARYIYTRPRPRNYWGQGTQVTVSS”, the “polyreactivity (PSR sort gate)” value is on record as “high polyreactivity”.

With “QVQLVESGGGLVQAGGSLRLSCAASGRPFWQYAMGWKRQGPGKERELVAAITSSGGSTYDADSVKGRITISRDNAKNTVYLQMNCLKPEDTAVYYCADDTRYYRYYYWGQGTQVTVSS”, the “polyreactivity (PSR sort gate)” value is reported as “high polyreactivity”.

Consider “QVQLVESGGGLVQAGGSLRLSCAASGRTFKYNAMGWYRQAPGKERELVAVIRYSGGTTYYADSVKGRFTISRDNAKNTVYLQMNSLKPEDTAVYYCARGFTYQYSSFYYWGQGTQVTVSS”, for which the “polyreactivity (PSR sort gate)” value was “low polyreactivity”.

With “QVQLVESGGGLVQAGGSLRLTCAASGRIFSRNAMGWYRQAPGKERELVAAISSSGGSTSYADSVKGRFTISRDNAKNTVYLQMNSLKPEDTAVYYCAADSYPAYLGFVGFDYWGQGTQVTVSS”, the “polyreactivity (PSR sort gate)” value is on record as “low polyreactivity”.

With “QVQLVESGGGLVQAGGSLRLSCAASGSTFFGNAMGWYRQAPGKERELVAVITKGGGSTYYADSVKGRFTISRDNAKNTVYLQMNSLKPEDTAVYYCAKTYTSGYHRRYDYWGQGTQVTVSS”, the “polyreactivity (PSR sort gate)” value is “low polyreactivity”.

As to “QVQLVESGGGLVQAGGSLRLSCAASGRIFNYNAMGWYRQAPGKERELVAVITSGDSTNYADSVKGRFTISRDNAKNTVYLQMNSLKPVDTAVYYCAAEYYSIRYGPNSIEVYGMDYWGQGTQVTVSS”, the “polyreactivity (PSR sort gate)” value is “low polyreactivity”.

For “QVQLVESGGGLVQAGGSLRLSCAASGFTFVYYAMGWYRQAPGKEREFVATISSRGDSTYYADSVKGRFTISRDNAKNTVYLQMNSLKPEDTAVYYCAADYDRKTRYGYLGQGTQVTVSS”, the “polyreactivity (PSR sort gate)” value was “low polyreactivity”.

Take “QVQLVESGGGLVQAGGSLRLSCAASGSIFDPNAMGWYRQAPGKERELLADIDSSDGSTYYADSVKGRFTISRDNAKNTVYLQMNSLKPEDTAVYYCNARYGGWVWSTYDHWGQGTQVTVSS”: the “polyreactivity (PSR sort gate)” value is listed as “low polyreactivity”.

As for “QVQLVESGGGLVQAGGSLRLSCAASGSIFVHNDMGGYRQAPGTERELVATIDSAGGTYYADSVKGRFTISRDNAKYTVYLQMNSLKPEDTAVYYCAAYGPYVLSIYDYWGQGTQVTVSS”, the “polyreactivity (PSR sort gate)” value is reported as “low polyreactivity”.

Turning to “QDQLVESGGGLVQAGGSLRLSCASYGSTFGANAMGWYRQAHGKARELVATISSGGRTYYADSVKGRFTISRDNAKITVYLQMNSLKPEDTAVYYCNAGADYTYVYISVYVLYDYLGQGTQVTVSS”, the “polyreactivity (PSR sort gate)” value was “low polyreactivity”.

As for “HVELVQSCGGLVQAGGSLRLSSAASGRIFSPYVMGWFRQAPGKVRQLVAASRNRGGSTYYAAAVKWRFTISRDNATNTVYIQMNSLKPEDTAVYYCNAPDVSRPLRGRYDYWGQGTQVTVSS”, the “polyreactivity (PSR sort gate)” value is “high polyreactivity”.

With “QVQLVESGGGLVQAGGSLRLSCAASGRTFSVNDMGRYRQAPGKEREMVAAISFSGGSTYYADSVKGRFTISRDDAKNTVYLQMNSLKPEDTAVYYCAAEAYPSWFYVITGFGIYDYWGQGTQVTVSS”, the “polyreactivity (PSR sort gate)” value was “high polyreactivity”.

With “QGQLVESGGGLVQAGGTLRLSCAASGSTFAVYVMGGYRQAPGTERELVAAISTSGARTYYADSVKGRFTISRDNAKNTVYLQMNSLKPEDTAVYYCAARSNALFRFDYWGQGTQVTVSS”, the “polyreactivity (PSR sort gate)” value is given as “high polyreactivity”.

Regarding “QVQLVESGGCLVQAGGSLRLSGAASGSISYRNSMGWYRQAPGKERELVAAISSRGGSTFYADSEKGRFTISRDNAKNTVYLQMNSLKPEDTAVYYCAARGYHRFKNVNYWGQGTQVTVSS”, the “polyreactivity (PSR sort gate)” value is listed as “high polyreactivity”.

“QVQLVESGGGLVQAGGRLRLSCAASGSIFASYAMGWYRQAPGKERELVAAITSDGNTYYADSVKGRFTISRDNAKNTVYLPMNSLIPEDTAVYYCAADRYSTYPYAKGTEFYYWGQGTQVTVSS”: the “polyreactivity (PSR sort gate)” value is “low polyreactivity”.

In the case of “QVQHVESGVGLVQAVGSLRLSCAASGLTIDYNAMGWDRQAPVKERELVAAISWSGGSTYYADSLKGRFTISRDNAKNTVYLQMNSLKPEDNAVYYCNALPHIVIGGIICYEYWGQGTQVTVSS”, the “polyreactivity (PSR sort gate)” value is given as “high polyreactivity”.

Turning to “QVQLVESGGGLVQAGGSLRLSCAASGGIFGRYDMGWYRQAPGKERELVAAISKRGGSTYYADSVKGRFTISRDNAKNTVYLQMNSLKPEDTAVYYCNAAQSVELGYDYWGQGTQGTVSS”, the “polyreactivity (PSR sort gate)” value was “high polyreactivity”.

For the sequence “QVQLVESVGGLVQAGGSLRLSCAASGFIFYSNAMGWYRKAPGKERELVAAISRSGGSTYYADSVKGRFTISRDNAKNTVYLQMNSLKPEDTAVYYCNVYCYDWWGYDYWGQGTQVTVSS”, the “polyreactivity (PSR sort gate)” value is on record as “high polyreactivity”.

Take “QVQLVESGGGLVQAGGSLRLSCAASGRIFKVYAMGWYRQAPGKERELVASIRWNTGSTYYADSVKGRFTISRDNAKNTVYLQMNSLKPEDTAVYYCNARGYYQGRYGYWGQGTQVTVSS”: the “polyreactivity (PSR sort gate)” value is “high polyreactivity”.

As for “QVHLVESGGGLVQAGGSLRLSCAASGNIFTINAMGWYRQAPGKERDLVARITWGGGNTFYADSVKGRFTISRDNAKNTVYLEMNSLKPEDTAVYYCNAVGPYDYRYGKYDYWGQGTQVTVSS”, the “polyreactivity (PSR sort gate)” value is listed as “low polyreactivity”.

Take “QVQLVESGGGLVQAGGSLRLSCAASGSIFYRYAMGWYRQAPGKERELVAAISSTGSTYYADSVKGRFTISRDNAKNTVYLQMNSLKPEDTAVYYCAARQGFRSYRRYDYWGQGTQVTVSS”: the “polyreactivity (PSR sort gate)” value is “high polyreactivity”.

Take “QVQLVESGGGLVQAGGSLRLSCAASGSIYRYAMGWYRQAPGKEREFVAAITGGSGSTYYADSVKGRFTISRDNAKNTVYLQMNSLKPEDTAVYYCAASIWRGLTPLLIGFDYWGQGTQVTVSS”: the “polyreactivity (PSR sort gate)” value was “high polyreactivity”.

As to “QVQLVESGGGLVQAGGSLRLSCAASGRTFGYYAMGWYRQAPGQERELVAAISSGGGTYYADSVKGRFTISRDNAKNTVYVQMNSLKPEDTAVYYCAATGWVYWGQFDYWGEGTQVTVSS”, the “polyreactivity (PSR sort gate)” value is “low polyreactivity”.

For the sequence “QVQLVESGGGLVQAGGSLRLSCAASGYTFWANAMGRYRQAPGKERELVAAISWTGGSTYYADSVKGRFTISRDNAKNTVYLQMNSLKPEDTAVYYCNRARINTRVQTDDYWGQGTQVTVSS”, the “polyreactivity (PSR sort gate)” value was “high polyreactivity”.
